Data on 2 molecules can be found in US20250205358A1, “PHOTOACTIVATABLE NANOPARTICLES AND USES THEREOF AS AGENTS FOR IMMUNOTHERAPY COMBINATIONS” (Board of Regents, The University of Texas System, priority 2023, published 2025).

One assay concerns PDAC. To be noted: PDAC patients, standard of care; cited from earlier work.
In the next assay the test system is PD-L1. Briefly: Fold increase in PD-L1 expression with mIFN-γ (flow cytometry). The following applies: 40 ng/ml, 24 h. It counts as cell-based, murine. The protocol:
Fold increase in PD-L1 expression and binding specificity of iTPALs: Confluent AT84, LLC, MC38, ID8, CT1BA5 and BMFA3 cells were washed in PBS, trypsinized, and collected in their respective media. The cells were counted and diluted to seed 1.5×10^5 cells per well in a 6 well plate (Corning) overnight. The next day, the media was replaced with fresh media containing 40 ng/ml of mIFN-γ and incubated for an additional 24 h. The cells were then trypsinized, dispersed in their respective media and counted using a cell counter (Bio-Rad). Cells were diluted in their respective media to obtain a concentration of 5×10^5 cells/ml. Then, 100 μl of the counted cells were placed in the 1.5 ml microcentrifuge tubes. To calculate the fold increase in PD-L1 expression, 100 μl of 40 µg/ml α-PD-L1 equivalent of α-PD-L1-AF488 were then added to the cells whereas to monitor the binding specificity of iTPALs (17α), 100 μl of 500 nM BPD-PC equivalent of either 100 μl PALs or TPALs (17α) added to the cells and incubated at 37° C. for 30 mins in the dark. The cells were then pelleted by […] for 5 mins at 1000×g, and the supernatants containing free unbound PALs and iTPALs (17α) were discarded. The cells were then resuspended in 300 μl of FACS buffer and transferred into flow cytometry tubes. For each condition, 10,000 cells were analyzed using a BD Fortessa flow cytometry analyzer with a 405 nm laser/710 nm bandpass detector pair for BPD-PC fluorescence and a 488 nm laser/530 nm detector pair for AF488 fluorescence. The data was then analyzed using FlowJo to calculate the median fluorescence of BPD-PC and AF488. The increase in PD-L1 expression after treating the cells with mIFN-γ was calculated as shown in Equation 1 below and the binding specificity of iTPALs (17α) was calculated as shown in Equation 2 below.

In the case of FOLFIRINOX, in the assay on PDAC, the Overall survival is listed as 11.1 months.

B1: mIFN-γ: mouse Interferon Gamma Protein (Sino Biological) (protein, UniProt P01580 23-155, looked up)
Interferon gamma: HGTVIESLESLNNYFNSSGIDVEEKSLFLDIWRNWQKDGDMKILQSQIISFYLRLFEVLKDNQAISNNISVIESHLITTFFSNSKAKKDAFMSIAKFEVNNPQVQRQAFNELIRVVHQLLPESSLRKRKRSRC
As to B1, the “Increase in PD-L1 expression” value is on record as 1.8 fold in the assay on PD-L1 (AT84 head and neck cancer cells); 2.5 fold with PD-L1 (BMFA3 PDAC cells); 1.5 fold with PD-L1 (CT1BA5 PDAC cells); 2.9 fold in the assay on PD-L1 (ID8 ovarian cancer cells); 1.4 fold with PD-L1 (LLC lung cancer cells); 1.8 fold in the assay with PD-L1 (MC38 colon cancer cells).
